Experimental data: publication PMC5473857

Molecular target: FtsZ-F268C labeled with fluorescein 5-maleimide (donor) or tetramethylrhodamine 5-maleimide (acceptor) (E. coli) (UniProt P0A9A6)

- FRET assay of subunit exchange of FtsZ protofilaments at steady state with FtsA*, pH 6.5: reaction time τ (13.1 s for FtsZ alone): 38 s
B1: FtsA-R286W (FtsA*) from E. coli (natural protein)
chain: MIKATDRKLVVGLEIGTAKVAALVGEVLPDGMVNIIGVGSCPSRGMDKGGVNDLESVVKCVQRAIDQAELMADCQISSVYLALSGKHISCQNEIGMVPISEEEVTQEDVENVVHTAKSVRVRDEHRVLHVIPQEYAIDYQEGIKNPVGLSGVRMQAKVHLITCHNDMAKNIVKAVERCGLKVDQLIFAGLASSYSVLTEDERELGVCVVDIGGGTMDIAVYTGGALRHTKVIPYAGNVVTSDIAYAFGTPPSDAEAIKVRHGCALGSIVGKDESVEVPSVGGRPPWSLQRQTLAEVIEPRYTELLNLVNEEILQLQEKLRQQGVKHHLAAGIVLTGGAAQIEGLAACAQRVFHTQVRIGAPLNITGLTDYAQEPYYSTAVGLLHYGKESHLNGEAEVEKRVTASVGSWIKRLNSWLRKEF
